Results on 21 molecules are retold here after patent US20230272113A1.

Numbering of substitutions follows the chain as printed.

This assay deals with human FLT3 on transfected CHO cells (human) (UniProt P36888). The assay is described as follows: FACS, scFv on CHO-human FLT3 cells pre-incubated with FLT3 ligand (competitor).

B1: FL-43 (scFv)
scFv: QVTLKESGPVLVKPTETLTLTCTVSGFSFRNARMGVSWIRQPPGKCLEWLAHIFSNDEKSYSTSLKSRLTISKDTSKSQVVLTLTNMDPVDTATYFCARMPEYSSGWSGAFDIWGQGTMVTVSSGGGGSGGGGSGGGGSDIQMTQSPSSLSASVGDRVTITCRASQGIRNDLVWYQQKPGKAPKRLIYGTSTLQSGVPSRFSGSGSGTEFTLTISSLQPEDFATYYCLQHNSYPLTFGCGTKVEIK
B1: the median [+ligand]/median [w/o ligand]*100 was > 75%.

B2: FL-52 (scFv)
scFv: B1 scFv with V10T, V24F, F29L, N31Y, G167D, V173A, G189A, T190A, T192S, V243L
Regarding B2, the median [+ligand]/median [w/o ligand]*100 was > 75%.

B3: FL-44 (scFv)
scFv: B1 scFv with A164T, G189A, T190A, Y226F, N231Y
As for B3, the median [+ligand]/median [w/o ligand]*100 was > 75%.

B4: FL-46 (scFv)
scFv: QVTLKESGPVLVKPTQTLTLTCTFSGFSLSNARMGVSWIRQPPGKCLEWLALIYWNDDKRYSPSLKSRLTITKDTSKNQVVLTMTNMDPVDTATYYCARMVGYGSGWYAYFDYWGQGTLVTVSSGGGGSGGGGSGGGGSDIQMTQSPSSLSASVGDRVTITCRASQGIRNDLGWYQQKPGKAPKRLIYAASSLQSGVPSRFSGSGSGTEFTLTISSLQPEDFATYYCLQHNSYPLTFGCGTKVEIK
As for B4, the median [+ligand]/median [w/o ligand]*100 is > 75%.

B5: FL-54 (scFv)
scFv: QVQLVESGGGVVQPGRSLRLSCAASGFTFSSYGMHWVRQAPGKCLEWVAVISYDGSNEFYADSVKGRFTISRDNSKNTLYLQMNSLRAEDTAVYYCARGGEITMVRGVIGYYYYGMDVWGQGTTVTVSSGGGGSGGGGSGGGGSEIVMTQSPATLSVSPGERATLSCRASQGVRNNLVWYQQKPGQAPRLLIYGASTRATGIPARFSGSGSGTEFTLTISSLQSEDFATYYCLQHNSYPLTFGCGTKVEIK
On to B5, for which the median [+ligand]/median [w/o ligand]*100 is > 75%.

B6: FL-62 (scFv)
scFv: B5 scFv with C44G, C244G
As to B6, the median [+ligand]/median [w/o ligand]*100 was > 75%.

B7: FL-45 (scFv)
scFv: QVTLKESGPALVKPTQTLTLTCTFSGFSLSNARMGVSWIRQPPGKCLEWLAHIFSNDEKSYRTSLKSRLTISKDTSKSQVVLTMTNMDPVDTATYYCARIVGYGSGWYAYFDYWGQGTLVTVSSGGGGSGGGGSGGGGSDIQMTQSPSSLSASVGDRVTITCRASQGIRNDLGWYQQKPGKAPKRLIYAASSLQSGVPSRFSGSGSGTEFTLTISSLQPEDFATYYCLQHNSYPLTFGCGTKVEIK
On to B7, for which the median [+ligand]/median [w/o ligand]*100 was > 75%.

B8: FL-47 (scFv)
scFv: B7 scFv with R62S, N86D, V90E, S105T, A109G, Y110F, T118I, A164T
With B8, the median [+ligand]/median [w/o ligand]*100 is > 75%.

B9: FL-50 (scFv)
scFv: QVTLKESGPTLVKPTETLTLTCTVSGFSLSNARMGVSWIRQPPGKCLEWLAHIFSNDEKSYSTSLKSRLTISKDTSKSQVVLTMTNMDPVDTATYYCARIPGYGGNFYYHYYGMDVWGQGTTVTVSSGGGGSGGGGSGGGGSDIQMTQSPSSLSASVGDRVTITCRASQGIRNDLAWYQQKPGKAPKRLIYAASTVQSGVPSRFSGSGSGTEFALTISSLQPEDFATYYCLQHNSFPWTFGCGTKVDIK
For B9, the median [+ligand]/median [w/o ligand]*100 is > 75%.

B10: FL-51 (scFv)
scFv: QVTLKESGPTLVKPTETLTLTCTVSGFSLRNVRMGVSWIRQPPGKCLEWLAHISSNDEKSYSTSLRSRLTISTDTSKSQVVLTMTNMDPVDTATYYCARMPGDSNTWRGFFDYWGQGTLVTVSSGGGGSGGGGSGGGGSEIVMTQSPATLSVSPGERATLSCRTSQSVNNNLAWYQQKPGQAPRLLIYGASTRATGIPARFSGSGSGTEFTLTISSLQPEDFATYYCLQHNSYPLTFGCGTKVEIK
For B10, the median [+ligand]/median [w/o ligand]*100 was > 75%.

B11: FL-58 (scFv)
scFv: B10 scFv with C46A, C239G
Consider B11, for which the median [+ligand]/median [w/o ligand]*100 is > 75%.

B12: FL-49 (scFv)
scFv: QVTLKESGPTLVKPTETLTLTCTVSGFSLNNARMGVSWIRQPPGKCLEWLAHIFSNDEKSYSTSLKNRLTISKDSSKTQVVLTMTNVDPVDTATYYCARIVGYGTGWFGYFDYWGQGTQVTVSSGGGGSGGGGSGGGGSDIQMTQSPSSLSASVGDRVTITCRASQDIRTDLAWYQQKPGKAPKRLIYAASSLQSGVPSRFSGSGSGTEFTLTISSLQPEDFATYYCLQHNRYPLTFGCGTKVDIK
For the molecule B12, the median [+ligand]/median [w/o ligand]*100 is > 75%.

B13: FL-57 (scFv)
scFv: QVTLKESGPTLVKPTETLTLTCTFSGFSLRYARMGVSWIRQPPGKALEWLAHISSNDEKSFSTALESRLTISTDTSKSQMVLTMTNVDPVDTATYYCARMPGDSNTWRGFFDYWGQGTLVTVSSGGGGSGGGGSGGGGSEIVMTQSPGTLSLSPGERATLSCRTSQTVTNSYIAWYQQRPGQAPRLLIYGTSTRATGIPDRFSGSGSGTDFTLTISRLEPEDFAVYYCQKYGSSPLTFGGGTKLEIK
B13: the median [+ligand]/median [w/o ligand]*100 was > 75%.

B14: FL-56 (scFv)
scFv: QVTLKESGPVLVKPTETLTLTCTVSGFSLRNVRMGVSWIRQPPGKALEWLAHIFSNDEKLYTTSLKSRLTISKDTSKSQVVLTMTNMDPEDTATYYCARIVGYGTGWYGYFDYWGQGTQVTVSSGGGGSGGGGSGGGGSDIQMTQSPSSLSASIGDRVTITCRASQDIRDDLGWYQREPGKAPKRLIYATSIRQSGVPSRFSGSGSGTEFTLTISGLQPEDFATYFCLQHHSFPLTFGGGTKVDIK
B14: the median [+ligand]/median [w/o ligand]*100 is > 75%.

B15: FL-59 (scFv)
scFv: QVTLKESGPMLVKPTETLTLTCTVSGFSLRNVRMGVSWIRQPPGKALEWLAHIFSNDEKSYSTSLKSRLTISKDTSKSQVVLTLTNMDPVDTATYFCARMPEYSSGWSGAFDIWGQGTMVTVSSGGGGSGGGGSGGGGSDIQMTQSPSSLSASVGDRVTITCRASQDIRDDLGWYQQKPGNAPKRLIYGASTLQSGVPSRFSGSGSGTEFTLTISSLQPEDFATYYCLQHNSYPLTFGGGTRLEIK
Turning to B15, the median [+ligand]/median [w/o ligand]*100 is > 75%.

B16: FL-53 (scFv)
scFv: QVQLVESGGGVVQPGRSLRLSCAASGFTFSSYGMHWVRQAPGKCLEWVAVISYDGSNEFYADSVKGRFTISRDNSKNTLYLQMNSLRAEDTAVYYCARGGEITMVRGVIGYYYYGMDVWGQGTTVTVSSGGGGSGGGGSGGGGSDIQMTQSPSSLSASVGDRVTITCRTSQSISSYLNWYQQKPGKAPKLLIYAASSLQSGVPSRFSGSGSGTEFTLTISSLQPEDFATYYCLQHNSYPLTFGCGTKVDIK
As for B16, the median [+ligand]/median [w/o ligand]*100 was > 75%.

B17: FL-64 (scFv)
scFv: B16 scFv with C44G, D161N, T169A, C244G
Consider B17, for which the median [+ligand]/median [w/o ligand]*100 is > 75%.

B18: FL-61 (scFv)
scFv: B16 scFv with C44G, T169A, C244G, D249E
For the molecule B18, the median [+ligand]/median [w/o ligand]*100 was > 75%.

B19: FL-63 (scFv)
scFv: B16 scFv with C44G, C244G
B19: the median [+ligand]/median [w/o ligand]*100 was > 75%.

B20: FL-48 (scFv)
scFv: QVTLKESGPMLVKPTETLTLTCTFSGFSLRNARMGVSWIRQPPGKCLEWLAHIFWNDEKSYSTSLKSRLTISKDTSKSQVVLTMTNMDPVDTATYYCARIPYYGSGSYNYGMDVWGQGTTVTVSSGGGGSGGGGSGGGGSDIQMTQSPSSLSASVGDRVTITCRASQGIRNDLGWYQQKPGKAPKRLIYAASSLQSGVPSRFSGSGSGTEFTLTISSLQPEDFATYYCLQHNTYPLTFGCGTKVDIK
For B20, the median [+ligand]/median [w/o ligand]*100 was > 75%.

B21: FL-60 (scFv)
scFv: QVTLKESGPALVKPTQTLTLTCTFSGFSLSNARMGVSWIRQPPGKALEWLAHIFSNDEKSYSTSLKSRLTISKDTSKRQVVLTMTNMDPVDTATYYCARMVGYGSGWYAYFDYWGQGTLVTVSSGGGGSGGGGSGGGGSDIVMTQTPLSLSVTPGQPASISCRSSQSLLHSNGYNYLYWYLQKPGQPPQLLIYEVSNRFSGVPDRFSGSGSGTDFTLKISRVEAEDVGVYYCMQALQTPLTFGGGTKVEIK
B21: the median [+ligand]/median [w/o ligand]*100 is > 75%.
